The text below walks through data of patent publication US20170065702A1 (CANGENE, published 2017).

Experiment [1] concerns the target T1, Marburg virus GP (Ravn) (Marburg virus, Ravn strain, UniProt Q1PDC7 19-681). Put plainly: cell-based or functional assay.
For another experiment, the target named is T2, MARV Ci67 GPe (Marburg virus, Ci67 strain, UniProt P35254 19-637).
T2 sequence: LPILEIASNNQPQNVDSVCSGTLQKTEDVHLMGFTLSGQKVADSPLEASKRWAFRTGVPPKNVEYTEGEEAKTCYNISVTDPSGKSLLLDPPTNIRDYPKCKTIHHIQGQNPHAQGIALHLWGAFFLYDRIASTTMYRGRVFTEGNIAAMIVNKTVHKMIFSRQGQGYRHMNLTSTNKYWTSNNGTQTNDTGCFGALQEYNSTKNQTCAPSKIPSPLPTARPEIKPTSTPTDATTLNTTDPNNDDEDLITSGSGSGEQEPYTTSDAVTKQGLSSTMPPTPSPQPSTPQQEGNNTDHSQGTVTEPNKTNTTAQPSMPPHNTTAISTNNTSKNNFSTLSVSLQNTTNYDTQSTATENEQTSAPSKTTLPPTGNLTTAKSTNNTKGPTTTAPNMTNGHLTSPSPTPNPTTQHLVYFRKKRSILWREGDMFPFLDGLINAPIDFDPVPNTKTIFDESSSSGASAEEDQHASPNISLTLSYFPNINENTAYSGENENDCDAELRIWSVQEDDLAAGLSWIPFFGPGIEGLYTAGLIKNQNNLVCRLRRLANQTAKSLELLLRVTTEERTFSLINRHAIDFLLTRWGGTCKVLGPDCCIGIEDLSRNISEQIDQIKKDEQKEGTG
Put plainly: ELISA on coated antigen (FIG. 2). (In general: An ELISA detects its analyte on a solid surface through an enzyme-linked reagent.)

For a further experiment, the target named is T3, MARV Musoke GPe (Marburg virus, Musoke strain, UniProt P35253 19-637).
T3 sequence: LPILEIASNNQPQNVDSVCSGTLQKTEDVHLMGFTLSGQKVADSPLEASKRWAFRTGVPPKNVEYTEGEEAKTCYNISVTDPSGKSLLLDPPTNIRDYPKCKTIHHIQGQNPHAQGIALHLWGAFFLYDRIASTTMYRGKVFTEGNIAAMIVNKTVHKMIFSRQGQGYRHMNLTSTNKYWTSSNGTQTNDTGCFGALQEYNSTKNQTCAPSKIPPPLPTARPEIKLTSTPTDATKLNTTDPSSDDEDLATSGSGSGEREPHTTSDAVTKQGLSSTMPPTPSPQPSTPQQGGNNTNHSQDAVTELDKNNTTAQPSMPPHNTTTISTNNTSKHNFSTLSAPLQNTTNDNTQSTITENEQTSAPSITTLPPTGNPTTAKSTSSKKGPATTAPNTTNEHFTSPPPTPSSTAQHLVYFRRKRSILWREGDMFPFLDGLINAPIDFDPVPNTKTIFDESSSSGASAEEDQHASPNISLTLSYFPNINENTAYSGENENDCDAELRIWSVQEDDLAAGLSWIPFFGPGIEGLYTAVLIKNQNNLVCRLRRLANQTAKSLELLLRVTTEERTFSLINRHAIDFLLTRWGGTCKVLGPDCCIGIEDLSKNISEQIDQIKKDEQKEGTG
Put plainly: ELISA on coated antigen (FIG. 2).

The target of the next experiment is T4, MARV Angola GPe (Marburg virus, Angola strain, UniProt Q1PD50 19-637).
T4 sequence: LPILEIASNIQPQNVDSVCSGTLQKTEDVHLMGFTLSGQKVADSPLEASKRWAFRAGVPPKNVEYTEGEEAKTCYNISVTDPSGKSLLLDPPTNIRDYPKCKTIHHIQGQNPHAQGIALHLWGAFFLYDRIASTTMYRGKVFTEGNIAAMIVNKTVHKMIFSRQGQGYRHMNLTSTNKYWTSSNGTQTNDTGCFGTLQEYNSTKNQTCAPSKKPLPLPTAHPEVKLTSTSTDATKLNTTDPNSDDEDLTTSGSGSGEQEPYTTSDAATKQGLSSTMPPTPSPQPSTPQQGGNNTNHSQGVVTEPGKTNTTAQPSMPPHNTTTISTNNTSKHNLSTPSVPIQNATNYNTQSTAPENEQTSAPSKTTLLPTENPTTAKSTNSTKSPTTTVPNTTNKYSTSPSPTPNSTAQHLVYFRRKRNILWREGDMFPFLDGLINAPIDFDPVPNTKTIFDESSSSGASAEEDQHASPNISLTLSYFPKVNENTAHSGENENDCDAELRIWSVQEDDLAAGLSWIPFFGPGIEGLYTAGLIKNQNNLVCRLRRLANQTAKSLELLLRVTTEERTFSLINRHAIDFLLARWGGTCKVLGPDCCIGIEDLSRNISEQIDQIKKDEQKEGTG
In words: ELISA on coated antigen (FIG. 2).

In experiment [2] the target is T1, Marburg virus GP (Ravn). Put plainly: cell-based or functional assay. The source holds these as a separate data set.

Positions count from the first letter of the chain named.

B1: CAN54G2 (antibody, V domains shown)
VH: QVQLQQSGTELVRPGTSVKISCKASGYDFTNFWLGWIKQRPGHGLEWIGDIYPGGDNTYYNEKFKGKVTLTADKSSNTAYMQFSSLTSEDSAVYFCFMILYTLDYWGQGTSVTVSS
VL: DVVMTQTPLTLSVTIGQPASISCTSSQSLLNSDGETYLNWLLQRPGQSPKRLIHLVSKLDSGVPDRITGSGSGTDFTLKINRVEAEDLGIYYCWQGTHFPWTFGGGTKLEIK
For B1, the “VSVdG/GP Neutralization” value with Marburg virus GP (Ravn) [1] is 40%. The binding result in the experiment with MARV Ci67 GPe, in the experiment with MARV Musoke GPe and with MARV Angola GPe was “no binding” each time. The “neutralization of mucin containing (full length) MARV GP-pseudotyped VSV” value (“neutralization of mucin containing” for short) with Marburg virus GP (Ravn) [2] is roughly 50%.

B2: CAN40G1 (antibody, V domains shown)
VH: EVQLQQSGPELVKPGASVKISCRTSGYTFTEYTIHWVKQSRGKSLEWIGGINPNHGGTLYNQKFKVKATLTVDKSSSTAYMELRSLTSEDSAVYYCARFTYDYWGQGTTLTVSS
VL: DIVLTQSPASLAVSLGQRASISCKASQSVDHDGDSYMNWYQQKPGQPPKLLIYATSNLESGIPARFSGSGSGTDFTLNIHPVEEEDAATYYCQQSYEVPLTFGAGTKLELK
Take B2: in the experiment with Marburg virus GP (Ravn) [1], the “VSVdG/GP Neutralization” value is 0%. In addition, the binding result in the experiment with MARV Ci67 GPe, with MARV Musoke GPe and in the experiment with MARV Angola GPe was “binds” in each case.

B3: CAN30G3 (antibody, V domains shown)
VH: QVQLKESGPGLVAPSQSLSITCTVSGFSLTDYGITWIRQPPGKGLEWLGVIWGGGSAYYNLVLKSRLSISKDNSKSQVFLKMNSLQTDDTAMYYCAKHRTLITTAMDYWGQGISVTVSS
VL: DVLMTQTPLSLPVSLGDQASISCRSSQNIVHSNGNTYLEWYLQKSGQSPKLLIYKVSNRFSGVPDRFSGSGSGTDFTLKISRVEAEDLGVYYCFQGSHFPWTFGGGTKLEIK
Take B3: the “VSVdG/GP Neutralization” value in the experiment with Marburg virus GP (Ravn) [1] stood at 40%. Moreover, the binding result in the experiment with MARV Ci67 GPe, with MARV Musoke GPe and with MARV Angola GPe was “no binding” in each case. In the experiment with Marburg virus GP (Ravn) [2], the “neutralization of mucin containing” value is roughly 50%.

B4: CAN30G4 (antibody, V domains shown)
VH: EVKLVESGGGLVKSGGSLKLSCAVSGFTFSTYAMSWVRQIPEKRLEWVATISNGGSYIYYSDSVKGRFTISRDNAKNTLYLQMSSLRSEDTAMYYCARHRESYRYDWFAYWGQGTLVTVSA
VL: B3 VL with N33D, S45P, V56F, F99V, W101P, G105A, I111L
Consider B4, for which the “VSVdG/GP Neutralization” value with Marburg virus GP (Ravn) [1] was 50%. The binding result in the experiment with MARV Ci67 GPe, with MARV Musoke GPe and with MARV Angola GPe was “binds” throughout.

B5: CAN30G1 (antibody, V domains shown)
VH: QIQLVQSGPELKKPGETVKISCKASGYTFTNYGMNWVKQAPGKGLKWMGWINTYTGKPTYVDDFKGRFAFSLETSANTAYLQINNLKNEDTATYFCESGGYDEDYWGQGTTLTVSS
VL: ENVLTQSPAIMSASPGEKVTMTCSASSSVTYMHWYQQKSSTSPKLWIYDTSKLASGVPGRFSGSGSGNSYSLTISSMEAEDVATYYCFQGSGYPYTFGGGTKLEIK
For the molecule B5, the “VSVdG/GP Neutralization” value with Marburg virus GP (Ravn) [1] was 5%. The binding result with MARV Ci67 GPe, with MARV Musoke GPe and with MARV Angola GPe was “binds” throughout.

B6: CAN30G5 (antibody, V domains shown)
VH: EVQLVESGGGLVQPKGSLKLSCAASGFAFNSYAMHWVCQAPGKGLEWVARIRIKSGNYATSYAGSVTDRFTVSRDDSQNLFYLQMNNLKTEDTAMYYCVREWEGAMDYWGQGTSVTVSS
VL: DIVLTQSPLSLPVSLGDQASISCRSSQSLVHSNGNTYLHWYLQKPGQSPNLLIYKVSNRFSGVPDRFSGSGSGTDFTLKISRVEAEDLGVYFCSQSTHVPWTFGGGTKLEIK
Turning to B6, the “VSVdG/GP Neutralization” value in the experiment with Marburg virus GP (Ravn) [1] came out at 50%. Also, the binding result in the experiment with MARV Ci67 GPe, in the experiment with MARV Musoke GPe and with MARV Angola GPe was “no binding” each time. For the same molecule, the “neutralization of mucin containing” value with Marburg virus GP (Ravn) [2] was roughly 50%.
